Source: patent US20220041752A1 (Bayer, published 2022)
Each block holds one molecule with its values, some of them ahead of it.

Assays:
[1] = molecular target: human tissue factor pathway inhibitor (TFPI) (human) (UniProt P10646); experiment: SPR (Biacore) blocking assay: human TFPI immobilised on a CM5 chip, control Fab at 1 ug/ml injected before 5 ug/mL FXa; this bar is the reference set to 100% by definition, so FXa binding is not reduced
[2] = molecular target: human tissue factor pathway inhibitor (TFPI) (human) (UniProt P10646); experiment: SPR (Biacore) blocking assay: human TFPI immobilised on a CM5 chip, control Fab at 1 ug/ml injected before 5 ug/mL FVIIa/TF complex; this bar is the reference set to 100% by definition, so FVIIa/TF binding is not reduced
[3] = molecular target: T1, human tissue factor pathway inhibitor (TFPI) (human, UniProt P10646 29-304); experiment: assay and TFPI form not stated; reference is the wild type with hc_Lys99
T1 construct: also called human TFPI
T1 sequence: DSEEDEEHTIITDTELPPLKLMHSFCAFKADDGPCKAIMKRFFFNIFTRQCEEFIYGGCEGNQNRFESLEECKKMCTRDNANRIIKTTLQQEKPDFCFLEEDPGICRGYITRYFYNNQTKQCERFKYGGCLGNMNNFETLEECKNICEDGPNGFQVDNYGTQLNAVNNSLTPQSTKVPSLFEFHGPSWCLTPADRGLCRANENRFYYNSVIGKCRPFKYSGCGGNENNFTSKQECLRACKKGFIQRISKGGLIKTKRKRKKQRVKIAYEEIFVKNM

[4] = molecular target: T1, human tissue factor pathway inhibitor …; experiment: assay and TFPI form not stated; reference is the wild type with hc_Asp62

FXa binding (% of the signal after control Fab) [1]: 100%
FVIIa/TF binding (% of the signal after control Fab) [2]: 100%
Molecule: Ctrl Fab

fold affinity increase against wild type (hc_Lys99) [3]: 20 fold
B1: Fab B (Fab, V domains shown)
VH: QVELVESGGGLVQPGGSLRLSCAASGFTFRSYGMSWVRQAPGKGLEWVSSIRGSSSSTYYADSVKGRFTISRDNSKNTLYLQMNSLRAEDTAVYYCARLYRYWFDYWGQGTLVTVSS
VL: DIELTQPPSVSVAPGQTARISCSGDNLRNYYAHWYQQKPGQAPVVVIYYDNNRPSGIPERFSGSNSGNTATLTISGTQAEDEADYYCQSWDDGVPVFGGGTKLTVLG
notes: also called monoclonal TFPI antibody Fab B

fold affinity increase against wild type (hc_Asp62) [4]: 120 fold
B2: Fab A (Fab, V domains shown)
VH: QVQLQQSGPGLVKPSQTLSLTCAISGDSVSSNSAAWSWIRQSPGRGLEWLGIIYKRSKWYNRYAVSVKSRITINPDTSKNQFSLQLNSVTPEDTAVYYCARWHSDKHWGFDYWGQGTLVTVSS
VL: DIVMTQSPLSLPVTPGEPASISCRSSQSLVFSDGNTYLNWYLQKPGQSPQLLIYKGSNRASGVPDRFSGSGSGTDFTLKISRVEAEDVGVYYCQQYDSYPLTFGQGTKVEIKR
notes: Expressed in E. coli; also called monoclonal antibody Fab A
